B1: Hairpin Ribozyme (parent)
chain: GUCCUCUUUCACGUGCGCGUGAAAGAGAGAAGUGAACCAGAGAAACACACGUUGUGGUAUAUUACCUGGUA

Variants of: B1
Experiment: self-cleavage, relative activity (ratio to wild type); higher = more cleavage; co-transcriptional

First: GUCCCCUUUCACGAGCGCGUGAAAGAGAGAAGUGAACCAGAGAAACACACGUUGUGGUAUAUUACCUGGUA
Second: GUCCCCUUUCACGUGCGCGCGAAAGAGAGAAGUGAACCAGAGAAACACACGUUGUGGUAUAUUACCUGGUA
The self-cleavage of the first is lower: 0.428 for the first, 0.673 for the second.

Compared with GUCCCCUUUCACGUGCGCGGGAAAGAGAGAAGUGAACCAGAGAAACACACGUUGUGGUAUAUUACCUGGUA, GUCCGCUUUCACGUGCGUGUGAAAGAGAGAAGUGAACCAGAGAAACACACGUUGUGGUAUAUUACCUGGUA is lower in self-cleavage: 0.508 for the first, 0.243 for the second.

Going from GUCCGCUUUCACGUGCGCGUGAAAGCGAGAAGUGAACCAGAGAAACACACGUUGUGGUAUAUUACCUGGUA to GUCCGCUUUCACGUGCGCGUGAAAGAGAGAAGUGAACCAGAGAAACACACGUUGUGGUGUAUUACCUGGUA, the self-cleavage falls from 0.68 to 0.0492.

Compared with GUCCGCUUUCACGUGCGCGUGAAAGAGAGAAGUGAACCAGAGAAACACACGUUGUGGUCUAUUACCUGGUA, GUCCGCUUUCACGUGCGCGUGAAAGAGAGAAGUGAACCAGAGAAACACCCGUUGUGGUAUAUUACCUGGUA is higher in self-cleavage: 0.13 for the first, 0.205 for the second.

Going from GUCCGCUUUCACGUGCGCGUGAAAGAGAGAAGUGAACCAGAGAAACACGCGUUGUGGUAUAUUACCUGGUA to GUCCCCUUUCACGUGCGCGUGAAAGAGAGAAGUGAACCAGAGAAACACACGUUGCGGUAUAUUACCUGGUA, the self-cleavage rises from 0.109 to 0.2.

First: GUCCCCUUUCACGUGCGCGUGAAAGAGAGAAGUGAACCAGAGAAACACACGUUGAGGUAUAUUACCUGGUA
Second: GUCCCCCUUCACGUGCGCGUGAAAGAGAGAAGUGAACCAGAGAAACACACGUUGUGGUAUAUUACCUGGUA
The self-cleavage of the first is lower: 0.21 for the first, 0.303 for the second.

Going from GUCCGCUUUCAAGUGCGCGUGAAAGAGAGAAGUGAACCAGAGAAACACACGUUGUGGUAUAUUACCUGGUA to GUCCCCUUUCACGUGCGCGUGAAAGAGAUAAGUGAACCAGAGAAACACACGUUGUGGUAUAUUACCUGGUA, the self-cleavage falls from 0.124 to 0.114.

Going from GUCCCCUUUCACGUGCGCGUGAAAGAGACAAGUGAACCAGAGAAACACACGUUGUGGUAUAUUACCUGGUA to GUCCCCUUUCACAUGCGCGUGAAAGAGAGAAGUGAACCAGAGAAACACACGUUGUGGUAUAUUACCUGGUA, the self-cleavage rises from 0.205 to 0.591.

Compared with GUCCCCUUUCACUUGCGCGUGAAAGAGAGAAGUGAACCAGAGAAACACACGUUGUGGUAUAUUACCUGGUA, GUCCGCUUUCACGUGCGCGUGAAAGAGAGAAGUGAACCAGAGAAACACACGUUGUGGUAUAUUACUUGGUA is lower in self-cleavage: 0.579 for the first, 0.223 for the second.

Going from GUCCCCUUUCACGUGCGCGUGAAAGAGAGAAGUGAACCAGAGAAACACACCUUGUGGUAUAUUACCUGGUA to GUCCCCUUUCACGUGCGCGUGAAAGAGAGAAGUGAACCAGAGAAACACACUUUGUGGUAUAUUACCUGGUA, the self-cleavage falls from 0.732 to 0.704.

Going from GUCCGCUUUCACGUGCGCGUGAAAGAGAUAAGUGAACCAGAGAAACACACGUUGUGGUAUAUUACCUGGUA to GUCCCCUUCCACGUGCGCGUGAAAGAGAGAAGUGAACCAGAGAAACACACGUUGUGGUAUAUUACCUGGUA, the self-cleavage rises from 0.168 to 0.457.

First: GUCCCCUUUCACGUGCGCGUGAAAGAGAGAAGUGAACCAGAGAAACACACGUUGUGGUAUAUAACCUGGUA
Second: GUCCCCUUUCACGUGCGCGUGAAAGAGAGAAGUGAACCAGAGAAACACAGGUUGUGGUAUAUUACCUGGUA
The self-cleavage of the first is lower: 0.104 for the first, 0.147 for the second.

Going from GUCCGCUUUCACUUGCGCGUGAAAGAGAGAAGUGAACCAGAGAAACACACGUUGUGGUAUAUUACCUGGUA to GUCCGCUUUCACCUGCGCGUGAAAGAGAGAAGUGAACCAGAGAAACACACGUUGUGGUAUAUUACCUGGUA, the self-cleavage falls from 0.361 to 0.276.

Compared with GUCCCCUUUCACGUGCGCGUGAAAGAGAGAAGUGAACCAGAGAAACACACGUUGUGGUAUAUUAGCUGGUA, GUCCCCUUUCACGUGCGCGUGAAAGAGAGAAGUGAACCAGAGAAACACACGUCGUGGUAUAUUACCUGGUA is higher in self-cleavage: 0.0463 for the first, 0.317 for the second.

First: GUCCCCUUUCACGUGCGCGUGAAAGAGAGAAGUGAACCAGAGAAACACACGUAGUGGUAUAUUACCUGGUA
Second: GUCCCCUUUCACGUGCGCGUGAAAGAGAGAAGUGAACCAGAGAAACACACGUUGUGGUAUAUUACCUGCUA
The self-cleavage of the first is higher: 0.535 for the first, 0.0944 for the second.

Going from GUCCCCUUUCACGUGCGCGUGAAAGAGAGAAGUGAACCAGAGAAACACACGUUGUGGUAUAUUACAUGGUA to GUCCGCUUUCACGUGCGCAUGAAAGAGAGAAGUGAACCAGAGAAACACACGUUGUGGUAUAUUACCUGGUA, the self-cleavage rises from 0.143 to 0.243.

Going from GUCCGCUUUCACGUGCGCUUGAAAGAGAGAAGUGAACCAGAGAAACACACGUUGUGGUAUAUUACCUGGUA to GUCCGCUUUCACGUGCGCGUGAAAGAGAGAAGUGAACUAGAGAAACACACGUUGUGGUAUAUUACCUGGUA, the self-cleavage falls from 0.274 to 0.195.

First: GUCCGCUUUCACGUGCGCGUGAAAGAGAGAAGUGAACGAGAGAAACACACGUUGUGGUAUAUUACCUGGUA
Second: GUCCCCUUUCACGUGCGCGUGAAAGAGAGAAUUGAACCAGAGAAACACACGUUGUGGUAUAUUACCUGGUA
The self-cleavage of the first is higher: 0.133 for the first, 0.132 for the second.

First: GUCCCCUUUCACGUGCGCGUGAAAGAGAGAACUGAACCAGAGAAACACACGUUGUGGUAUAUUACCUGGUA
Second: GUCCGCUUUCACGUGCGCGUGAAAGAGAGAAGUGAACCAGAGAAACACACGUUGUGGUAUAUUACCUGGUU
The self-cleavage of the first is lower: 0.0586 for the first, 0.306 for the second.

From the RNAGym collection of RNA variant scans (doi:10.7554/elife.80360)
